Target: MutLα (MLH1-PMS2) (human, UniProt P40692 1-756; P54278 1-862)
Experiment: co-IP

Sequence of MutLα (MLH1-PMS2) (P40692 whole entry, chain 1 of 2): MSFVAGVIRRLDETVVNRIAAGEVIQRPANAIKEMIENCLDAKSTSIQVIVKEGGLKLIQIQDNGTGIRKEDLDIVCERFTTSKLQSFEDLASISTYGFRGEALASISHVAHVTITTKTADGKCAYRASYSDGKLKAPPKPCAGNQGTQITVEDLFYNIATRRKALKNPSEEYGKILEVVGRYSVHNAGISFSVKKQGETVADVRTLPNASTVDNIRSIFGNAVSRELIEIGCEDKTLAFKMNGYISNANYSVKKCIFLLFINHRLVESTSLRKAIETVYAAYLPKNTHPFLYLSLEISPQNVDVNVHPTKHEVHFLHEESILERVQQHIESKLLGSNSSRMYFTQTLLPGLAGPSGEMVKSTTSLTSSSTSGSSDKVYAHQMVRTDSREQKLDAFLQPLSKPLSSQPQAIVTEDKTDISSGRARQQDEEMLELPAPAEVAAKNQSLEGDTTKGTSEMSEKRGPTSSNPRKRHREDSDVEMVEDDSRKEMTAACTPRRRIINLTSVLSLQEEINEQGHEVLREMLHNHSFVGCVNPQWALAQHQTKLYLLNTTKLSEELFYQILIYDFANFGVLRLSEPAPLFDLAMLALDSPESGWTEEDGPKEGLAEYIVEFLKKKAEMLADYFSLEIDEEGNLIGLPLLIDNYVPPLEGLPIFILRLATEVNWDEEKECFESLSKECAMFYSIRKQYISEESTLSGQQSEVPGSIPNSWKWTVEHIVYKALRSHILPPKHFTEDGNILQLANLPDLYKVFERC
Sequence of MutLα (MLH1-PMS2) (P54278 whole entry, chain 2 of 2): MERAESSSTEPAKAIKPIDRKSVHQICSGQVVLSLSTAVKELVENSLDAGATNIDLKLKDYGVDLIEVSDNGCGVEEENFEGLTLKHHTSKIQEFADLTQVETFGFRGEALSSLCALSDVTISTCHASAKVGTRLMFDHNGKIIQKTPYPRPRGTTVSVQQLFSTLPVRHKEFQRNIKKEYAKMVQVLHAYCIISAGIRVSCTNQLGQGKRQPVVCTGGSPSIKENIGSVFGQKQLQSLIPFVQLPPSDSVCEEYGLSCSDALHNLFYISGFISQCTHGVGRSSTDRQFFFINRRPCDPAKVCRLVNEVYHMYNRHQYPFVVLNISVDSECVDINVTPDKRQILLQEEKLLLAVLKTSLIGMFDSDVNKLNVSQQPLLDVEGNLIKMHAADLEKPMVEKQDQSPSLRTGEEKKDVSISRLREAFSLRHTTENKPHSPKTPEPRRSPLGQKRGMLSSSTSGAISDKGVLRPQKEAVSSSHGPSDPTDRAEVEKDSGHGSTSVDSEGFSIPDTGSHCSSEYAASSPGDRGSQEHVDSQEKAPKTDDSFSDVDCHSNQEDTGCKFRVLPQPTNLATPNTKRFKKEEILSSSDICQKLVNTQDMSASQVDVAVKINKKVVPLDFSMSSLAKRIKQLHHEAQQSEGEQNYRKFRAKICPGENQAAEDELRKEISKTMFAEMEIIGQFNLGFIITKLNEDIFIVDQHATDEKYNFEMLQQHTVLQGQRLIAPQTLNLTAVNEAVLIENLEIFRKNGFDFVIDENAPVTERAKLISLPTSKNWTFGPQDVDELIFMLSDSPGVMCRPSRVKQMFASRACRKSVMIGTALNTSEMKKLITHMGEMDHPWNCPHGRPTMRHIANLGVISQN

Row | Binder | binding result
1 | Exo1-FF-AA (enzyme, human, UniProt Q9UQ84 1-846, looked up) MGIQGLLQFIKEASEPIHVRKYKGQVVAVDTYCWLHKGAIACAEKLAKGEPTDRYVGFCMKFVNMLLSHGIKPILVFDGCTLPSKKEVERSRRERRQANLLKGKQLLREGKVSEARECFTRSINITHAMAHKVIKAARSQGVDCLVAPYEADAQLAYLNKAGIVQAIITEDSDLLAFGCKKVILKMDQFGNGLEIDQARLGMCRQLGDVFTEEKFRYMCILSGCDYLSSLRGIGLAKACKVLRLANNPDIVKVIKKIGHYLKMNITVPEDYINGFIRANNTFLYQLVFDPIKRKLIPLNAYEDDVDPETLSYAGQYVDDSIALQIALGNKDINTFEQIDDYNPDTAMPAHSRSHSWDDKTCQKSANVSSIWHRNYSPRPESGTVSDAPQLKENPSTVGVERVISTKGLNLPRKSSIVKRPRSAELSEDDLLSQYSLSFTKKTKKNSSEGNKSLSFSEVFVPDLVNGPTNKKSVSTPPRTRNKFATFLQRKNEESGAVVVPGTRSRAACSSDSTDCVSNKVSIQPLDETAVTDKENNLHESEYGDQEGKRLVDTDVARNSSDDIPNNHIPGDHIPDKATVFTDEESYSFESSKFTRTISPPTLGTLRSCFSWSGGLGDFSRTPSPSPSTALQQFRRKSDSPTSLPENNMSDVSQLKSEESSDDESHPLREEACSSQSQESGEFSLQSSNASKLSQCSSKDSDSEESDCNIKLLDSQSDQTSKLRLSHFSKKDTPLRNKVPGLYKSSSADSLSTTKIKPLGPARASGLSKKPASIQKRKHHNAENKPGLQIKLNELWKNFGFKKDSEKLPPCKKPLSPVRDNIQLTPEAEEDIFNKPECGRVQRAIFQ | binds
2 | Exo1-ΔC (domain or fragment, human, UniProt Q9UQ84 1-602, looked up) MGIQGLLQFIKEASEPIHVRKYKGQVVAVDTYCWLHKGAIACAEKLAKGEPTDRYVGFCMKFVNMLLSHGIKPILVFDGCTLPSKKEVERSRRERRQANLLKGKQLLREGKVSEARECFTRSINITHAMAHKVIKAARSQGVDCLVAPYEADAQLAYLNKAGIVQAIITEDSDLLAFGCKKVILKMDQFGNGLEIDQARLGMCRQLGDVFTEEKFRYMCILSGCDYLSSLRGIGLAKACKVLRLANNPDIVKVIKKIGHYLKMNITVPEDYINGFIRANNTFLYQLVFDPIKRKLIPLNAYEDDVDPETLSYAGQYVDDSIALQIALGNKDINTFEQIDDYNPDTAMPAHSRSHSWDDKTCQKSANVSSIWHRNYSPRPESGTVSDAPQLKENPSTVGVERVISTKGLNLPRKSSIVKRPRSAELSEDDLLSQYSLSFTKKTKKNSSEGNKSLSFSEVFVPDLVNGPTNKKSVSTPPRTRNKFATFLQRKNEESGAVVVPGTRSRFFCSSDSTDCVSNKVSIQPLDETAVTDKENNLHESEYGDQEGKRLVDTDVARNSSDDIPNNHIPGDHIPDKATVFTDEESYSFESSKFTRTISPPTL | binds

From publication PMC8666006 (Cancer cell, 2020)
